From IntAct's records for PubMed 20168298

Biological target: T1, pkd2_human PKD2 (UniProt Q13563)
T1 sequence: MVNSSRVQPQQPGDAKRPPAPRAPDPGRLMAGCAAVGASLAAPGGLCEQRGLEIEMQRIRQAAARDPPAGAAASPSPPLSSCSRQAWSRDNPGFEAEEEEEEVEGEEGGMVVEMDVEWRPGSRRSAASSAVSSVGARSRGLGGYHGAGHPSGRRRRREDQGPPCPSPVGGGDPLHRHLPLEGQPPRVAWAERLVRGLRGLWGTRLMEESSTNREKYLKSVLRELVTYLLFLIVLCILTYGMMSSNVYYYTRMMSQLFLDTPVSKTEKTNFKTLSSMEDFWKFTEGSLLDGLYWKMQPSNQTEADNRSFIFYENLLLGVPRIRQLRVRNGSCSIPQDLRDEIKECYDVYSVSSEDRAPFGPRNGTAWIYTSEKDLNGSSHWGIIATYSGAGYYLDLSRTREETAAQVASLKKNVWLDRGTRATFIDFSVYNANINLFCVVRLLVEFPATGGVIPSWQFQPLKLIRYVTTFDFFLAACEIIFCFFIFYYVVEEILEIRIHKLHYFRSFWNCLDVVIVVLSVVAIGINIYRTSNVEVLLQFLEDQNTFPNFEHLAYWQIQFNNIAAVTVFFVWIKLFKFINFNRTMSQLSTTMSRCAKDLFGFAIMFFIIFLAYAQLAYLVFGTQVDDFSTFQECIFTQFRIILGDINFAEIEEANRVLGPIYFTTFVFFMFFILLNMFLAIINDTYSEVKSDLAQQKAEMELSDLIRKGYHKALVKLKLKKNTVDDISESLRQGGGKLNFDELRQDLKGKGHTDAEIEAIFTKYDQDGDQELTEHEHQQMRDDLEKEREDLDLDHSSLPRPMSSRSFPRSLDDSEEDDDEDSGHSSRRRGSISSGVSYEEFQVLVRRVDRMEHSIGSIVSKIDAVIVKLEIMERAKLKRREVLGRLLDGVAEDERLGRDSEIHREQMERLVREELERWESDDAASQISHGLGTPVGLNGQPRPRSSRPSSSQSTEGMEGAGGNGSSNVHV

In the case of “Polycystin-1 (Homo sapiens) (from UniProt P98161) Q4225P”, the “effect of a mutation on the interaction” value was “disrupting interaction”.
